Results published in US11827699 (dated 2023).
Substitutions are numbered along the chain they refer to. Values belong to the binder of their own block, whether it stands above or below them.

How the values were obtained:
Assay in all cases: SPR
human FcγRIIIa V158 = human FcγRIIIa V158 (human, UniProt P08637)
human FcγRIIb = biological target: T1, human FcγRIIb (human, UniProt P31994)
T1 chain: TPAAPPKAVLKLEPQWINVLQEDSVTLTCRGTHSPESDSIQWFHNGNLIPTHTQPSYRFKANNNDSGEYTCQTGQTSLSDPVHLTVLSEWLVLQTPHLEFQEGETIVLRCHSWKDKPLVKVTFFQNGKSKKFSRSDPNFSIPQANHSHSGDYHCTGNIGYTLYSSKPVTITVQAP

human FcγRIa = biological target: T2, human FcγRIa (human, UniProt P12314)
T2 chain: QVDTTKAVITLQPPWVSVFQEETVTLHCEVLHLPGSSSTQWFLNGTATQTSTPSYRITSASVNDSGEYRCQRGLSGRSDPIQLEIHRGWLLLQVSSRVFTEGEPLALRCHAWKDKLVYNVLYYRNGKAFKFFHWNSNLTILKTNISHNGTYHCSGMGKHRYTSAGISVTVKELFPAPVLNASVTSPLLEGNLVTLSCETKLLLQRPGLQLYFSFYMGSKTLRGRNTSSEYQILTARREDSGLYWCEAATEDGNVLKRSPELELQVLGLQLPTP

human FcγRIIa H131 = biological target: T3, human FcγRIIa H131 (human, UniProt P12318)
T3 chain: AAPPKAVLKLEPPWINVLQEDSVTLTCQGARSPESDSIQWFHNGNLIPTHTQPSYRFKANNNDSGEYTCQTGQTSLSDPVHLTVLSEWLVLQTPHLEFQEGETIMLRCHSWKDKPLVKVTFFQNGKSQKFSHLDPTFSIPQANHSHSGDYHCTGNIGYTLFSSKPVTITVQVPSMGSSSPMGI

human FcγRIIa R131 = biological target: T4, human FcγRIIa R131 (human, UniProt P12318)
T4 chain: T3 chain with H132R

human FcγRIIIa V158, sequence (P08637 17-208 F176V): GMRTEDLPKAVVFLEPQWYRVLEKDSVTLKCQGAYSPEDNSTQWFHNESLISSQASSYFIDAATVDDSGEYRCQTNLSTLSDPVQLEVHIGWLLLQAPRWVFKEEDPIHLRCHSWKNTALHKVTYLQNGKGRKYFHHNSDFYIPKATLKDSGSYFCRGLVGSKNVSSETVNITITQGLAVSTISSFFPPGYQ

B1: IL6R-BP503 (antibody)
chain 1: QVQLQESGPGLVKPSETLSLTCAVSGHSISHDHAWSWVRQPPGEGLEWIGFISYSGITNYNPSLQGRVTISRDNSKNTLYLQMNSLRAEDTAVYYCARSLARTTAMDYWGEGTLVTVSSASTKGPSVFPLAPSSKSTSGGTAALGCLVKDYFPEPVTVSWNSGALTSGVHTFPAVLQSSGLYSLSSVVTVPSSSLGTQTYICNVNHKPSNTKVDKKVEPKSCDKTHTCPPCPAPDLLGDDSVFLFPPKPKDTLMISRTPEVTCVVIDVAEEDGEVKFNWYVDGVEVHNAKTKPREEQDNSTYRVVSVLTVLHQDWLNGKEYKCKVSNKGLPRPIEKTISKAKGQPREPQVYTLPPSRDELTKNQVSLTCLVKGFYPSDIAVEWESNGQPENNYKTTPMVLDSDGSFFLYSKLTVDKSRWQQGNVFSCSVMHEALHNHYTQESLSLSP
chain 2: not shown
Kd (human FcγRIIIa V158): 21000 nM
Kd (human FcγRIIb): 1.7 nM
Kd (human FcγRIa): 1.2 nM
Kd (human FcγRIIa H131): 860 nM
Kd (human FcγRIIa R131): 57 nM

B2: IL6R-BP498 (antibody)
chain 1: B1 chain 1 with D298Y, G329A, M398L
chain 2: not shown
Kd (human FcγRIIIa V158): 10000 nM
Kd (human FcγRIIb): 1.7 nM
Kd (human FcγRIa): 1.3 nM
Kd (human FcγRIIa H131): 930 nM
Kd (human FcγRIIa R131): 51 nM

B3: IL6R-BP488 (antibody)
chain 1: B1 chain 1 with G329A, M398P
chain 2: not shown
Kd (human FcγRIIIa V158): 20000 nM
Kd (human FcγRIIb): 1.9 nM
Kd (human FcγRIa): 2.2 nM
Kd (human FcγRIIa H131): 1600 nM
Kd (human FcγRIIa R131): 74 nM

B4: IL6R-BP496 (antibody)
chain 1: B1 chain 1 with G329A, R332A, M398P
chain 2: not shown
Kd (human FcγRIIIa V158): 30000 nM
Kd (human FcγRIIb): 18 nM
Kd (human FcγRIa): 1.2 nM
Kd (human FcγRIIa H131): 3700 nM
Kd (human FcγRIIa R131): 470 nM

B6: IL6R-BP269 (antibody)
chain 1: B1 chain 1 with D235E, I266V, A269S, G329A, R332A, M398P
chain 2: not shown
Kd (human FcγRIIIa V158): 140000 nM
Kd (human FcγRIIb): 110 nM
Kd (human FcγRIa): 14 nM
Kd (human FcγRIIa H131): 72000 nM
Kd (human FcγRIIa R131): 2200 nM

B7: IL6R-BP497 (antibody)
chain 1: B1 chain 1 with D298Y, M398P
chain 2: not shown
Kd (human FcγRIIIa V158): 28000 nM
Kd (human FcγRIIb): 4.1 nM
Kd (human FcγRIa): 2.1 nM
Kd (human FcγRIIa H131): 960 nM
Kd (human FcγRIIa R131): 85 nM

B8: IL6R-BP494 (antibody)
chain 1: B1 chain 1 with D235E, I266V, G329A, M398P
chain 2: not shown
Kd (human FcγRIIIa V158): 40000 nM
Kd (human FcγRIIb): 6.6 nM
Kd (human FcγRIa): 3.9 nM
Kd (human FcγRIIa H131): 5400 nM
Kd (human FcγRIIa R131): 250 nM

More lines, in order of falling Kd (human FcγRIIIa V158), values ahead:

Kd (human FcγRIIIa V158): 61000 nM
Kd (human FcγRIIb): 21 nM
Kd (human FcγRIa): 1.4 nM
Kd (human FcγRIIa H131): 20000 nM
Kd (human FcγRIIa R131): 540 nM
B9: IL6R-BP508 (antibody)
chain 1: B1 chain 1 with E274P, G329A, R332A, M398P
chain 2: not shown

Kd (human FcγRIIIa V158): 39000 nM
Kd (human FcγRIIb): 24 nM
Kd (human FcγRIa): 2.3 nM
Kd (human FcγRIIa H131): 25000 nM
Kd (human FcγRIIa R131): 720 nM
B5: IL6R-BP500 (antibody)
chain 1: B1 chain 1 with D235E, G329A, R332A, M398P
chain 2: not shown

Kd (human FcγRIIIa V158): 36000 nM
Kd (human FcγRIIb): 24 nM
Kd (human FcγRIa): 0.79 nM
Kd (human FcγRIIa H131): 16000 nM
Kd (human FcγRIIa R131): 920 nM
B11: IL6R-BP492 (antibody)
chain 1: B1 chain 1 with D235E, D239G, D298Y, G329A, R332A, M398P
chain 2: not shown

Kd (human FcγRIIIa V158): 24000 nM
Kd (human FcγRIIb): 3.7 nM
Kd (human FcγRIa): 2.1 nM
Kd (human FcγRIIa H131): 1300 nM
Kd (human FcγRIIa R131): 110 nM
B12: IL6R-BP502 (antibody)
chain 1: B1 chain 1 with M398P
chain 2: not shown

Kd (human FcγRIIIa V158): 23000 nM
Kd (human FcγRIIb): 18 nM
Kd (human FcγRIa): 1.1 nM
Kd (human FcγRIIa H131): 7900 nM
Kd (human FcγRIIa R131): 520 nM
B13: IL6R-BP509 (antibody)
chain 1: B1 chain 1 with E274D, G329A, R332A, M398P
chain 2: not shown

Kd (human FcγRIIIa V158): 10000 nM
Kd (human FcγRIIb): 1.2 nM
Kd (human FcγRIa): 1.2 nM
Kd (human FcγRIIa H131): 840 nM
Kd (human FcγRIIa R131): 39 nM
B10: IL6R-BP487 (antibody)
chain 1: B1 chain 1 with D298Y, G329A
chain 2: not shown
